Here are results for 45 molecules from patent publication US20170314054A1 (ROCHE SEQUENCING SOLUTIONS, published 2017).

First the molecules themselves.
T1: microbial transglutaminase from Streptomyces mobaraensis (MTG) (Streptomyces mobaraensis, UniProt P81453 77-407)
T1 sequence (looked up): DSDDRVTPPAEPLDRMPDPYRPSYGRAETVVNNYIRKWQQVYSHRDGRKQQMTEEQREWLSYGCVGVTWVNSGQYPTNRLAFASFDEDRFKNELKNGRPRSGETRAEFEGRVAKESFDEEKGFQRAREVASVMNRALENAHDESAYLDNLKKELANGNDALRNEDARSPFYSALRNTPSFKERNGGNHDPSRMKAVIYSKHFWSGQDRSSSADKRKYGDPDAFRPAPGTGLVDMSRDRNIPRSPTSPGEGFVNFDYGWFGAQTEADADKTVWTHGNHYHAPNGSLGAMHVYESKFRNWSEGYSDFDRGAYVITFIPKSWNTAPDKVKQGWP

No end group written: not given here.

For one assay, the target named is T1, microbial transglutaminase from …. Description: cell-based or functional assay.
As for DFYLQ [DFYLQ (SEQ ID NO: 22)], the “Log2(signal), array MTG labeling with N-(Biotinyl)cadaverine” value (“Log2(signal), array MTG labeling” for short) was 15.2 Log2(signal).

NYVLQ (also: flanked by G:S (3:1) linkers on peptide array) [NYVLQ (SEQ ID NO: 12)]: the “Log2(signal), array MTG labeling” value was 15.3 Log2(signal).

On to HYALQ (also: flanked by G:S (3:1) linkers on peptide array) [HYALQ (SEQ ID NO: 19)], for which the “Log2(signal), array MTG labeling” value was 15.2 Log2(signal).

DYALQ [DYALQ (SEQ ID NO: 1)]: the “Log2(signal), array MTG labeling” value is 15.5 Log2(signal).

EYALQ (also: flanked by G:S (3:1) linkers on peptide array) [EYALQ (SEQ ID NO: 4)]: the “Log2(signal), array MTG labeling” value was 15.5 Log2(signal).

For the molecule DYTLQ [DYTLQ (SEQ ID NO: 11)], the “Log2(signal), array MTG labeling” value is 15.3 Log2(signal).

DYFLQ [DYFLQ (SEQ ID NO: 8)]: the “Log2(signal), array MTG labeling” value was 15.4 Log2(signal).

On to EYFLQ (also: flanked by G:S (3:1) linkers on peptide array) [EYFLQ (SEQ ID NO: 24)], for which the “Log2(signal), array MTG labeling” value was 15.2 Log2(signal).

As for FYALQ (also: flanked by G:S (3:1) linkers on peptide array) [FYALQ (SEQ ID NO: 10)], the “Log2(signal), array MTG labeling” value is 15.4 Log2(signal).

As for PYALQ (also: flanked by G:S (3:1) linkers on peptide array) [PYALQ (SEQ ID NO: 5)], the “Log2(signal), array MTG labeling” value is 15.4 Log2(signal).

In the case of YFALQ (not fully specified) [YFALQ (SEQ ID NO: 15)], the “Log2(signal), array MTG labeling” value was 15.3 Log2(signal).

With NYFLQ (also: flanked by G:S (3:1) linkers on peptide array) [NYFLQ (SEQ ID NO: 9)], the “Log2(signal), array MTG labeling” value is 15.4 Log2(signal).

Take EFVAQ (also: flanked by G:S (3:1) linkers on peptide array) [EFVAQ (SEQ ID NO: 21)]: the “Log2(signal), array MTG labeling” value is 15.2 Log2(signal).

Take PYVLQ (also: flanked by G:S (3:1) linkers on peptide array) [PYVLQ (SEQ ID NO: 16)]: the “Log2(signal), array MTG labeling” value is 15.3 Log2(signal).

In the case of DYVAQ [DYVAQ (SEQ ID NO: 20)], the “Log2(signal), array MTG labeling” value is 15.2 Log2(signal).

With NFVLQ (not fully specified; also: flanked by G:S (3:1) linkers on peptide array) [NFVLQ (SEQ ID NO: 25)], the “Log2(signal), array MTG labeling” value was 15.2 Log2(signal).

Take EYVAQ (also: flanked by G:S (3:1) linkers on peptide array) [EYVAQ (SEQ ID NO: 13)]: the “Log2(signal), array MTG labeling” value was 15.3 Log2(signal).

For DYVLQ (also: flanked by G:S (3:1) linkers on peptide array) [DYVLQ (SEQ ID NO: 2)], the “Log2(signal), array MTG labeling” value is 15.5 Log2(signal).

Take SYALQ (not fully specified) [SYALQ (SEQ ID NO: 18)]: the “Log2(signal), array MTG labeling” value is 15.2 Log2(signal).

EFALQ (also: flanked by G:S (3:1) linkers on peptide array) [EFALQ (SEQ ID NO: 23)]: the “Log2(signal), array MTG labeling” value was 15.2 Log2(signal).

For WYALQ (not fully specified) [WYALQ (SEQ ID NO: 17)], the “Log2(signal), array MTG labeling” value was 15.3 Log2(signal).

As to NYALQ (also: flanked by G:S (3:1) linkers on peptide array) [NYALQ (SEQ ID NO: 3)], the “Log2(signal), array MTG labeling” value was 15.5 Log2(signal).

In the case of RYALQ (not fully specified) [RYALQ (SEQ ID NO: 14)], the “Log2(signal), array MTG labeling” value was 15.3 Log2(signal).

For the molecule DFALQ [DFALQ (SEQ ID NO: 7)], the “Log2(signal), array MTG labeling” value was 15.4 Log2(signal).

With EYVLQ (not fully specified; also: flanked by G:S (3:1) linkers on peptide array) [EYVLQ (SEQ ID NO: 6)], the “Log2(signal), array MTG labeling” value is 15.4 Log2(signal).

A further assay shares this target. Kind of assay: cell-based or functional assay. This is another data set of the same source.
On to GRSKL (also: flanked by G:S (3:1) linkers on peptide array) [GRSKL (SEQ ID NO: 69)], for which the “A (array MTG labeling signal with Z-Gln-Gly-CAD-biotin)” value came out at 13.3.

As for RSKLG (not fully specified) [RSKLG (SEQ ID NO: 58)], the “A (array MTG labeling signal with Z-Gln-Gly-CAD-biotin)” value is 13.4.

With RAKYK (also: flanked by G:S (3:1) linkers on peptide array) [RAKYK (SEQ ID NO: 70)], the “A (array MTG labeling signal with Z-Gln-Gly-CAD-biotin)” value is 13.3.

Regarding RGTKL (also: flanked by G:S (3:1) linkers on peptide array) [RGTKL (SEQ ID NO: 60)], the “A (array MTG labeling signal with Z-Gln-Gly-CAD-biotin)” value worked out at 13.4.

In the case of QRSKL (also: flanked by G:S (3:1) linkers on peptide array) [QRSKL (SEQ ID NO: 73)], the “A (array MTG labeling signal with Z-Gln-Gly-CAD-biotin)” value was 13.3.

Turning to RLKSK (also: flanked by G:S (3:1) linkers on peptide array) [RLKSK (SEQ ID NO: 67)], the “A (array MTG labeling signal with Z-Gln-Gly-CAD-biotin)” value is 13.3.

Turning to RSKSK (not fully specified) [RSKSK (SEQ ID NO: 62)], the “A (array MTG labeling signal with Z-Gln-Gly-CAD-biotin)” value came out at 13.4.

As for SKLSK (not fully specified) [SKLSK (SEQ ID NO: 71)], the “A (array MTG labeling signal with Z-Gln-Gly-CAD-biotin)” value turned out to be 13.3.

Turning to KLGAK (also: flanked by G:S (3:1) linkers on peptide array) [KLGAK (SEQ ID NO: 72)], the “A (array MTG labeling signal with Z-Gln-Gly-CAD-biotin)” value turned out to be 13.3.

As for ARSKL [ARSKL (SEQ ID NO: 54)], the “A (array MTG labeling signal with Z-Gln-Gly-CAD-biotin)” value worked out at 13.4.

In the case of SKSKL (not fully specified) [SKSKL (SEQ ID NO: 63)], the “A (array MTG labeling signal with Z-Gln-Gly-CAD-biotin)” value was found to be 13.4.

For the molecule FPKLK (also: flanked by G:S (3:1) linkers on peptide array) [FPKLK (SEQ ID NO: 61)], the “A (array MTG labeling signal with Z-Gln-Gly-CAD-biotin)” value was 13.4.

With KSKLA (also: flanked by G:S (3:1) linkers on peptide array) [KSKLA (SEQ ID NO: 55)], the “A (array MTG labeling signal with Z-Gln-Gly-CAD-biotin)” value worked out at 13.4.

Consider RSKLA (not fully specified) [RSKLA (SEQ ID NO: 68)], for which the “A (array MTG labeling signal with Z-Gln-Gly-CAD-biotin)” value is 13.3.

Consider TKSKL (not fully specified) [TKSKL (SEQ ID NO: 56)], for which the “A (array MTG labeling signal with Z-Gln-Gly-CAD-biotin)” value was 13.4.

On to KLSKL (also: flanked by G:S (3:1) linkers on peptide array) [KLSKL (SEQ ID NO: 57)], for which the “A (array MTG labeling signal with Z-Gln-Gly-CAD-biotin)” value came to 13.4.

Turning to RGSKL (also: flanked by G:S (3:1) linkers on peptide array) [RGSKL (SEQ ID NO: 59)], the “A (array MTG labeling signal with Z-Gln-Gly-CAD-biotin)” value was 13.4.

Consider PKTKL (also: flanked by G:S (3:1) linkers on peptide array) [PKTKL (SEQ ID NO: 66)], for which the “A (array MTG labeling signal with Z-Gln-Gly-CAD-biotin)” value stood at 13.3.

In the case of KLKYK (also: flanked by G:S (3:1) linkers on peptide array) [KLKYK (SEQ ID NO: 65)], the “A (array MTG labeling signal with Z-Gln-Gly-CAD-biotin)” value was 13.4.

Consider FTKSK (also: flanked by G:S (3:1) linkers on peptide array) [FTKSK (SEQ ID NO: 64)], for which the “A (array MTG labeling signal with Z-Gln-Gly-CAD-biotin)” value came out at 13.4.
